Assay results: US20220041738A1 (SAITAMA MEDICAL UNIVERSITY, published 2022)
Changes are numbered by the printed parent chain. One block for each binder: values may come before it.

How the values were obtained:
Assay in all cases: immunofluorescence (legend of FIG. 4)
[1] = target: T1, human ALK2-P197_F198delinsL on cells (human, UniProt Q04771 21-509)
T1 construct: also called delP197_F198insL
T1 sequence: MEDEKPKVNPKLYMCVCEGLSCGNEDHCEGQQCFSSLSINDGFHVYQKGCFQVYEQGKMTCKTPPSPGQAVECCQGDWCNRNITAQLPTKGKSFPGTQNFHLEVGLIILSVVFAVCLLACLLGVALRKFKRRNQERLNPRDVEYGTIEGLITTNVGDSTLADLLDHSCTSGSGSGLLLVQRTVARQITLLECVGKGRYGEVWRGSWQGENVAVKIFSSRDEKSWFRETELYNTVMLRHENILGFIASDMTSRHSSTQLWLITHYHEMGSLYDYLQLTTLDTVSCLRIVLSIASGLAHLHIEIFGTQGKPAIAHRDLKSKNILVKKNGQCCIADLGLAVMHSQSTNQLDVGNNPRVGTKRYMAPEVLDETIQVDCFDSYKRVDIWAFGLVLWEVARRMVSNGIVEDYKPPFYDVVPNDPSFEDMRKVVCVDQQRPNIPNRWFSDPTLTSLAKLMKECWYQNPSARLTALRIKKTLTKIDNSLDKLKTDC
Description: (§1) Mouse C2C12 cells were seeded into a 96-well plate (Greiner Bio-One) at 0.5×10³ cells/well, and cultured in 15% FBS-containing DMEM medium overnight under the conditions of 5% CO₂ at 37° C. On the following day, the C2C12 cells were transfected with each of a wild-type human ALK2 cDNA integrated into pcDEF3; pcDEF3/human ALK2-L196P, pcDEF3/human ALK2-P197_F198delinsL, pcDEF3/human ALK2-R202I, pcDEF3/human ALK2-R206H, pcDEF3/human ALK2-Q207E, pcDEF3/human ALK2-R258S, pcDEF3/human ALK2-G325A, pcDEF3/human ALK2-G328E, pcDEF3/human ALK2-G328R, pcDEF3/human ALK2-G328W, pcDEF3/human ALK2-G356D, and pcDEF3/human ALK2-R375P, which are variants identified in FOP; and pcDEF3 as a control, using Lipofectamine 2000 (Invitrogen), and further cultured overnight.
(§2) The C2C12 cells were fixed with 10% neutral formalin (Nacalai Tesque, Japan) for 20 minutes at room temperature, and then blocked with 10% goat normal serum for 30 minutes. After the blocking agent was removed, purified IgG diluted to 10 μg/mL with the blocking agent was added, and the cells were left for 1 hour at room temperature. After the cells were washed with PBS three times, Goat Alexa 594-conjugated anti-rat IgG (Invitrogen) diluted to 1:1000 with the blocking agent was added, and the cells were left for 1 hour at room temperature. After the cells were washed with PBS three times, the cells were fixed with 10% neutral formalin for 15 minutes at room temperature, and nuclear-stained with DAPI (LifeTechnologies). Fluorescent signals were analyzed with a fluorescence microscope BZ-9000 (Keyence).

[2] = target: T2, human ALK2-R258S on cells (human, UniProt Q04771 21-509)
T2 sequence: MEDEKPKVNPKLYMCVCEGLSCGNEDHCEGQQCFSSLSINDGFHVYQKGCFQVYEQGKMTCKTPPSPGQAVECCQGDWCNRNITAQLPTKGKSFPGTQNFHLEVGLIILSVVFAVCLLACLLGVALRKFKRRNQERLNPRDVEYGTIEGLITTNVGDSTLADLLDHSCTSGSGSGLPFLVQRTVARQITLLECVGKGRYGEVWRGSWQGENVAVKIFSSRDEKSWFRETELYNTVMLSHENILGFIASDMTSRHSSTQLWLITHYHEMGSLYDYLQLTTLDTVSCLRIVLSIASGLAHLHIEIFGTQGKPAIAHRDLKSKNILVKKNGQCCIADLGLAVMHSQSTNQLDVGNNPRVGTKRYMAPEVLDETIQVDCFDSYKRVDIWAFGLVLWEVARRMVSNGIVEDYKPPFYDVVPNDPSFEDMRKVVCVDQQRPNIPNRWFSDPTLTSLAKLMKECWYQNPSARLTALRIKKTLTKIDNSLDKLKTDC
Description: as §1, §2

[3] = target: T3, human ALK2-G328R on cells (human, UniProt Q04771 21-509)
T3 sequence: T2 sequence with S238R, G308R
Description: as §1, §2

[4] = target: T4, human ALK2-G356D on cells (human, UniProt Q04771 21-509)
T4 sequence: T2 sequence with S238R, G336D
Description: as §1, §2

binding result [1]: binds
binding result [2]: binds
binding result [3]: binds
binding result [4]: binds
B1: rat anti-ALK2 monoclonal antibody A2-15A (antibody, V domains shown)
VH: EVQLVESGGGLVQPGRSLKLSCAASGFTFSHYYMAWVRQAPTKGLEWVASITNSGGSINYRDSVKGRFTISRDNAKSTLYLQMDSLRSEDTATYYCTREGGENYGGYPPFAYWGQGTLVTVSS
VL: DIVLTQSPALAVSLGQRATISCRANQGVSLSRYNLMHWYQQKPGQKPKLLIYRSSNLASGIPARFSGSGSGTDFTLTINPVQADDIATYYCQQSRESPFTFGAGTKLELKR
notes: Rat monoclonal IgG from a hybridoma; also called 15A6

binding result [1]: binds
binding result [2]: binds
binding result [3]: binds
binding result [4]: binds
B2: rat anti-ALK2 monoclonal antibody A2-11E (antibody, V domains shown)
VH: EVQLVETGGGLVQPGRSLKLSCVASGFTFSNYYMYWIRQAPGKGLEWISSINTDGGSTYYPDSVKGRFAISRDNAENTVYLQMNSLRSEDTATYYCAKSTPNIPLAYWGQGTLVTVSS
VL: DIQMTQSPSLLSASVGDRVTLSCKASQNIYKYLNWFQQKLGEAPKLLIYYSNSLQTGIPSRFSGSGSGTDFTLTISSLQPEDVAIYFCFQYSSGPTFGPGTKLELKR
notes: Rat monoclonal IgG from a hybridoma; also called 11E2
